One substance from patent US20110098227 can be followed below.

The test system of the series is NusA-Notch fusion protein (NusA fused to mouse Notch-1 N1703-D1860 with C-terminal Flag and 8His tags), uncleaved.

For the substance “solubilized gamma-secretase from HeLa cells”, the “apparent Km for hydrolysis (Notch cleavage ELISA)” value is “about 0.7 µM” and the “specific cleavage at the 1743-1744 junction” value is recorded as “γ-secretase activity from HeLa cells specifically cleaves the Notch protein at the 1743-1744 junction”.
